This assay deals with clathrin heavy chain (Sus scrofa). Description: cryo-EM structure.

In turn, clathrin heavy chain (natural protein) yielded a stoichiometry N of 3.

As a reminder, the stoichiometry N is a count of units in the complex or per binding partner.

Values taken from article PMC7100586.
